“Also recorded” adds a separate entry of the source.
Legend:
[1] = test system: human patient exhibiting symptoms of hypercholesterolemia; assay: Treatment of hypercholesterolemia (Example 17); assay type: in vivo; conditions: therapeutically effective amount
Excerpt: At periodic times during the treatment, the human patient is monitored to determine whether the serum cholesterol level has declined.

[2] = test system: human patient at risk of developing coronary heart disease; assay: Prevention of coronary heart disease (Example 18); assay type: in vivo; conditions: alone, concurrently or sequentially with a statin
Excerpt: A human patient at risk of developing coronary heart disease is identified. […] At periodic times during the treatment, the human patient is monitored to determine whether the patient's total serum cholesterol level changes.

[3] = Osmolality of 21B12 formulations; assay type: physicochemical
Excerpt: In certain embodiments, the pharmaceutical formulation is isotonic with an osmolality ranging from between about 250 to about 350 miliosmol/kg, e.g., about 250 mOsm/kg, about 260 mOsm/kg, about 270 mOsm/kg, about 280 mOsm/kg, about 290 mOsm/kg, about 300 mOsm/kg, about 310 mOsm/kg, about 320 mOsm/kg, about 330 mOsm/kg, about 340 mOsm/kg, or about 350 mOsm/kg, and including all values in between. As used herein, “osmolality” is the measure of the ratio of solutes to volume fluid. In other words, it is the number of molecules and ions (or molecules) per kilogram of a solution. Osmolality may be measured on an analytical instrument called an osmometer, such as Advanced Instruments 2020 Multi-sample Osmometer, Norwood, Mass. The Advanced Instrumetns 2020 Multi-sample Osmometer measures osmolality by using the Freezing Point Depression method. The higher the osmolytes in a solution, the temperature in which it will freeze drops. Osmolality may also be measured using any other methods and in any other units known in the art such as linear extrapolation.

[4] = Pharmacokinetics in cynomolgus monkeys; assay type: in vivo, cynomolgus monkey; conditions: 0.5 mg/kg single SC
Procedure: Antibody concentrations in serum were determined using an enzyme-linked immunosorbent assay (ELISA) with an assay range of 34.4 to 3000 ng/mL (34.4 ng/mL being the lower limit of quantitation [LLOQ]).
Non-compartmental analysis (NCA) was performed on the serum concentrations using the pre-determined nominal time points for each subject using Watson® LIMS, version 7.0.0.01 (Thermo Scientific, Waltham, Mass.). Data points for estimating the terminal elimination rate constants and half-lives were chosen by visual inspection of the concentration-time profile and best linear fit (typically from 360 h until the antibody concentrations dropped below the lower limit of quantitation).
NCA parameters reported include: terminal half-life (t1/2,z), the maximum serum concentration (Cmax), area under the serum concentration-time curve from time zero to infinity (AUC0-inf), and apparent serum clearance (CL/F). AUC0-inf was calculated using the linear log-linear trapezoidal method. All parameters were all reported to three significant figures, except for half-life which was reported to two significant figures.

healthy subjects = assay: Phase 1 ascending single dose study (Example 20); assay type: in vivo, human
[5] = test system: patients from four studies described in Examples 22-25; assay: Aggregate data of the studies of Examples 22-25; assay type: in vivo, human
[6] = test system: subjects with hyperlipidemia on stable doses of a statin; assay: Phase 1b ascending multiple dose study on stable statin (Example 21); assay type: in vivo
Procedure: The study had seven cohorts. […] Cohort 6 was conducted in hypercholesterolemic subjects on high doses of a statin (atorvastatin 80 mg or rosuvastatin 40 mg).

[7] = cohort 6, high-dose statins, 140 mg SC Q2W 3 times

B1: 21B12: human anti-PCSK9 monoclonal antibody; light/heavy variable region SEQ ID NO 23/49 (antibody, listed as Homo sapiens, V domains shown)
VH: QVQLVQSGAEVKKPGASVKVSCKASGYTLTSYGISWVRQAPGQGLEWMGWVSFYNGNTNYAQKLQGRGTMTTDPSTSTAYMELRSLRSDDTAVYYCARGYGMDVWGQGTTVTVSS
VL: QSALTQPASVSGSPGQSITISCTGTSSDVGGYNSVSWYQQHPGKAPKLMIYEVSNRPSGVSNRFSGSKSGNTASLTISGLQAEDEADYYCNSYTSTSMVFGGGTKLTVL
[1]
  serum cholesterol levels vs patients not receiving the treatment: reduced serum cholesterol levels
[2]
  serum cholesterol vs patients not receiving the treatment: reduced serum cholesterol
[3]; 21B12 73 mg/mL, 10 mM Na acetate, pH 5.2 +3% proline
  Osmolality (mOsmol/kg): 253 mOsmol/kg
[3]; 21B12 76 mg/mL, 10 mM Na acetate, pH 5.2
  Osmolality (mOsmol/kg): 53 mOsmol/kg
[3]; 21B12 116 mg/mL, 10 mM sodium acetate, pH 4.8, 50 mM methionine + 2% benzyl alcohol
  Osmolality (mOsmol/kg): 329 mOsmol/kg
[3]; 21B12 116 mg/mL, 10 mM sodium acetate, pH 4.8, 150 mM arginine
  Osmolality (mOsmol/kg): 241 mOsmol/kg
[3]; 21B12 116 mg/mL, 10 mM sodium acetate, pH 4.8, 1.5% proline + 1% benzyl alcohol
  Osmolality (mOsmol/kg): 277 mOsmol/kg
[3]; 21B12 116 mg/mL, 10 mM sodium acetate, pH 4.8, 2% proline + 1% benzyl alcohol
  Osmolality (mOsmol/kg): 313 mOsmol/kg
[3]; 21B12 116 mg/mL, 10 mM sodium acetate, pH 4.8, no excipients
  Osmolality (mOsmol/kg): 72 mOsmol/kg
[3]; 21B12 117 mg/mL, 10 mM Na acetate, pH 4.5
  Osmolality (mOsmol/kg): 59 mOsmol/kg
[3]; 21B12 122 mg/mL, 10 mM Na acetate, pH 5.2 +3% proline
  Osmolality (mOsmol/kg): 274 mOsmol/kg
[3]; 21B12 130 mg/mL, 10 mM Na acetate, pH 5
  Osmolality (mOsmol/kg): 59 mOsmol/kg
[3]; 21B12 148 mg/mL, 10 mM Na acetate, pH 5.2 +3% proline
  Osmolality (mOsmol/kg): 301 mOsmol/kg
[3]; 21B12 […], 10 mM Na acetate, pH 4
  Osmolality (mOsmol/kg): 59 mOsmol/kg
[3]; 21B12 […], 10 mM Na acetate, pH 5.2 +150 mM NaCl
  Osmolality (mOsmol/kg): 346 mOsmol/kg
[3]; 21B12 […], 10 mM Na acetate, pH 5.2 +3% proline
  Osmolality (mOsmol/kg): 252 mOsmol/kg
[3]; 21B12 […], 10 mM Na acetate, pH 5.5
  Osmolality (mOsmol/kg): 64 mOsmol/kg
[3]; 21B12 […], 10 mM Na acetate, pH 5.5 +150 mM methionine and 3% benzyl alcohol
  Osmolality (mOsmol/kg): 520 mOsmol/kg
[4]
  half-life: ~40 h
Healthy subjects; 420 mg IV group
  AUC0-inf (median): 1550 µg·days/mL
  median maximum observed concentration (Cmax): 139 µg/mL
Healthy subjects; 18 of 42 subjects
  subjects with treatment-related adverse events: 43%
Healthy subjects; 21B12 at any dose, 29 of 42 subjects
  subjects with treatment-emergent adverse events: 69%
Healthy subjects; all 42 subjects who received 21B12
  anti-21B12 antibodies in serum: negative
Healthy subjects; in vivo
  effects on laboratory variables, ECGs, vital signs: no trends indicative of clinically important effects
Healthy subjects; single SC and IV doses up to 420 mg
  tolerability: well tolerated
Healthy subjects; single SC or IV dose
  serious adverse events: No adverse events were reported as serious
Healthy subjects; single dose
  LDL-C nadir observed within (after dosing): ≤ 2 weeks
Healthy subjects; single dose SC or IV
  elimination: nonlinear (concentration-dependent) elimination
Healthy subjects; single doses ≧70 mg SC
  suppression of PCSK9: Complete suppression of PCSK9
[5]; 140 mg Q2W
  reduction from baseline in LDL-C at week 12: ~60%
[5]; 420 mg Q4W
  reduction from baseline in LDL-C at week 12: ~56%
[5]; p values <0.001
  dose dependent reduction from baseline in ApoB: 36-53%
  dose dependent reduction from baseline in non-HDL-C: 36-53%
  dose dependent reduction from baseline in total cholesterol: 25-37%
[6]; 35 mg QW
  maximum ApoB reduction during the study: 48%
[6]; 140 mg and 280 mg Q2W and 420 mg Q4W
  maximum ApoB reduction during the study: 59%
[6]; at higher doses
  plasma PCSK9: undetectable
[6]; cohort 3, 140 mg Q2W SC 3 times, preliminary
  suppression of PCSK9: Near-complete suppression of PCSK9
[6]; [7]
  maximum reduction in LDL-C versus placebo: 73%
  mean reduction in LDL-C vs placebo at the end of the dosing interval: 63%
[6]; cohort 7 heFH
  maximum LDL-C reduction versus placebo: 70%
  maximum reduction of ApoB versus placebo: 57%
  maximum reduction of non-HDL cholesterol versus placebo: 67%
  maximum total cholesterol reduction versus placebo: 47%
  serious AEs: No serious AEs were reported
[6]; cohort 7 heFH, 140 mg SC Q2W 3 times, week 6
  mean reduction in LDL-C vs placebo at the end of the dosing interval: 65%
[6]; cohort 7 heFH, week 6
  mean reduction in ApoB levels vs placebo: up to 47%
  mean reduction in lipoprotein a (Lp(a)) vs placebo: 50%
  mean reduction in non-HDL cholesterol vs placebo: 61%
  mean reduction in serum PCSK9 values vs placebo: 78%
  mean reduction in total cholesterol vs placebo: up to 42%
[6]; cohorts 1-5
  mean ApoB reduction vs placebo at the end of the dosing interval: up to 54%
  mean reduction of PCSK9 levels vs placebo at the end of the dosing interval: up to 94%
[6]; cohorts 1-5, low to moderate doses of statins, 3 biweekly SC doses
  mean LDL-C reduction vs placebo at maximal reduction: up to 81%
[6]; cohorts 1-5, week 6 after 3 biweekly SC doses
  mean LDL-C reduction vs placebo at the end of the dosing interval: ≤ 75%
[6]; cohorts 1-5, week 8 after 2 every 4 week SC doses
  mean LDL-C reduction at the end of the dosing interval: ≤ 66%
[6]; cohorts 1-6
  mean Lp(a) reduction vs placebo at the end of the dosing interval: up to 43%
[6]; cohorts 1-6, final results
  deaths or serious adverse events: No deaths or serious adverse events (AEs) were reported; also recorded: no serious AEs
  neutralizing antibodies to 21B12: No neutralizing antibodies to 21B12 were detected
[6]; heFH subjects after treatment
  circulating PCSK9: undetectable
[6]; preliminary, cohorts 1-3, stable moderate doses of statins
  LDL-C nadir observed within (after initial dosing): ≤ 2 weeks
[6]; repeated SC doses over 6 weeks, low-to-moderate or high-dose statins
  decrease of circulating LDL-C vs placebo: up to 81%
